B1: Protein maelstrom homolog, residues 3 to 71; numbered along this chain, Q96JY0 (parent)
chain: NRKASRNAYYFFVQEKIPELRRRGLPVARVADAIPYCSSDWALLREEEKEKYAEMAREWRAAQGKDPGP
B2: Receptor-interacting serine/threonine-protein kinase 2, residues 438 to 518; numbered along this chain, O43353 (parent)
chain: QWIQSKREDIVNQMTEACLNQSLDALLSRDLIMKEDYELVSTKPTRTSKVRQLLDTTDIQGEEFAKVIVQKLKDNKQMGLQ

± gives the uncertainty stated by the source.

One series covers variants of B1. Kind of series: abundance fitness (aPCA) (normalised: wild type 0, dead -1); higher = more abundant; growth selection in yeast, the domain comes from the species named. The conditions noted are these: Homo sapiens.
As for NRKASRNAYYFFVQEKIPELRRRGLPVARVADAIPYCSSDWALLREEEKEKYAEMAREWRAAQGKDPGW [P69W], the abundance fitness turned out to be 0.11 ± 0.48. For the variant NRKASRNAYYFFVQEKIPELRRRGLPVARVADAIPYCSSDWALLREEEKEKYAEMAREWRAAQGKDPGY [P69Y], the abundance fitness amounted to 0.162 ± 0.36.

The variants in the next series derive from B2. Described as above. The conditions noted are these: Homo sapiens.
On to QWIQSFREDIVNQMTEACLNQSLDALLSRDLIMKEDYELVSTKPTRTSKVRQLLDTTDIQGEEFAKVIVQKLKDNKQMGLQ [K6F], for which the abundance fitness was 0.095 ± 0.44. On the same count and under the same terms, then QWIQLKREDIVNQMTEACLNQSLDALLSRDLIMKEDYELVSTKPTRTSKVRQLLDTTDIQGEEFAKVIVQKLKDNKQMGLQ [S5L], with -0.216 ± 0.15; and QWIQQKREDIVNQMTEACLNQSLDALLSRDLIMKEDYELVSTKPTRTSKVRQLLDTTDIQGEEFAKVIVQKLKDNKQMGLQ [S5Q], with -0.088 ± 0.23. Regarding QWIQVKREDIVNQMTEACLNQSLDALLSRDLIMKEDYELVSTKPTRTSKVRQLLDTTDIQGEEFAKVIVQKLKDNKQMGLQ [S5V], the abundance fitness was -0.384 ± 0.16. The same measure, in the same setting: with QWIQPKREDIVNQMTEACLNQSLDALLSRDLIMKEDYELVSTKPTRTSKVRQLLDTTDIQGEEFAKVIVQKLKDNKQMGLQ [S5P] the figure was -0.623 ± 0.15; with QWIQHKREDIVNQMTEACLNQSLDALLSRDLIMKEDYELVSTKPTRTSKVRQLLDTTDIQGEEFAKVIVQKLKDNKQMGLQ [S5H], -0.824 ± 0.36; with QWIQTKREDIVNQMTEACLNQSLDALLSRDLIMKEDYELVSTKPTRTSKVRQLLDTTDIQGEEFAKVIVQKLKDNKQMGLQ [S5T], -0.315 ± 0.14. On the same count and under the same terms, with QWIQWKREDIVNQMTEACLNQSLDALLSRDLIMKEDYELVSTKPTRTSKVRQLLDTTDIQGEEFAKVIVQKLKDNKQMGLQ [S5W] the figure was -0.639 ± 0.46; with QWIQFKREDIVNQMTEACLNQSLDALLSRDLIMKEDYELVSTKPTRTSKVRQLLDTTDIQGEEFAKVIVQKLKDNKQMGLQ [S5F], -0.636 ± 0.43; with QWIQGKREDIVNQMTEACLNQSLDALLSRDLIMKEDYELVSTKPTRTSKVRQLLDTTDIQGEEFAKVIVQKLKDNKQMGLQ [S5G], -0.177 ± 0.24. Same read-out and setting: then QWIQRKREDIVNQMTEACLNQSLDALLSRDLIMKEDYELVSTKPTRTSKVRQLLDTTDIQGEEFAKVIVQKLKDNKQMGLQ [S5R], with -0.125 ± 0.16; and QWIQDKREDIVNQMTEACLNQSLDALLSRDLIMKEDYELVSTKPTRTSKVRQLLDTTDIQGEEFAKVIVQKLKDNKQMGLQ [S5D], with 0.224 ± 0.27; and QWIQKKREDIVNQMTEACLNQSLDALLSRDLIMKEDYELVSTKPTRTSKVRQLLDTTDIQGEEFAKVIVQKLKDNKQMGLQ [S5K], with -0.171 ± 0.27.

Consider QWIQEKREDIVNQMTEACLNQSLDALLSRDLIMKEDYELVSTKPTRTSKVRQLLDTTDIQGEEFAKVIVQKLKDNKQMGLQ [S5E], for which the abundance fitness was found to be 0.372 ± 0.27. Still for that read-out and setting: then RWIQSKREDIVNQMTEACLNQSLDALLSRDLIMKEDYELVSTKPTRTSKVRQLLDTTDIQGEEFAKVIVQKLKDNKQMGLQ [Q1R], with -0.389 ± 0.47.

Take LWIQSKREDIVNQMTEACLNQSLDALLSRDLIMKEDYELVSTKPTRTSKVRQLLDTTDIQGEEFAKVIVQKLKDNKQMGLQ [Q1L]: the abundance fitness is -0.399 ± 0.28. On the same count and under the same terms, then HWIQSKREDIVNQMTEACLNQSLDALLSRDLIMKEDYELVSTKPTRTSKVRQLLDTTDIQGEEFAKVIVQKLKDNKQMGLQ [Q1H], with -0.398 ± 0.4. Take QWIQSKSEDIVNQMTEACLNQSLDALLSRDLIMKEDYELVSTKPTRTSKVRQLLDTTDIQGEEFAKVIVQKLKDNKQMGLQ [R7S]: the abundance fitness is -0.419 ± 0.073.

As to QWIQSKYEDIVNQMTEACLNQSLDALLSRDLIMKEDYELVSTKPTRTSKVRQLLDTTDIQGEEFAKVIVQKLKDNKQMGLQ [R7Y], the abundance fitness was -0.501 ± 0.17. The same measure, in the same setting: then QWIQSKVEDIVNQMTEACLNQSLDALLSRDLIMKEDYELVSTKPTRTSKVRQLLDTTDIQGEEFAKVIVQKLKDNKQMGLQ [R7V], with -0.611 ± 0.085; and QWIQSKLEDIVNQMTEACLNQSLDALLSRDLIMKEDYELVSTKPTRTSKVRQLLDTTDIQGEEFAKVIVQKLKDNKQMGLQ [R7L], with -0.545 ± 0.085; and QWIQSKGEDIVNQMTEACLNQSLDALLSRDLIMKEDYELVSTKPTRTSKVRQLLDTTDIQGEEFAKVIVQKLKDNKQMGLQ [R7G], with -0.563 ± 0.079. Same read-out and setting: with QWIQSKPEDIVNQMTEACLNQSLDALLSRDLIMKEDYELVSTKPTRTSKVRQLLDTTDIQGEEFAKVIVQKLKDNKQMGLQ [R7P] the figure was -0.956 ± 0.14; with QWIQSKIEDIVNQMTEACLNQSLDALLSRDLIMKEDYELVSTKPTRTSKVRQLLDTTDIQGEEFAKVIVQKLKDNKQMGLQ [R7I], -0.838 ± 0.38; with QWIQSKAEDIVNQMTEACLNQSLDALLSRDLIMKEDYELVSTKPTRTSKVRQLLDTTDIQGEEFAKVIVQKLKDNKQMGLQ [R7A], -0.334 ± 0.081. On the same count and under the same terms, with QWIQSKQEDIVNQMTEACLNQSLDALLSRDLIMKEDYELVSTKPTRTSKVRQLLDTTDIQGEEFAKVIVQKLKDNKQMGLQ [R7Q] the figure was -0.463 ± 0.13; with QWIQSKEEDIVNQMTEACLNQSLDALLSRDLIMKEDYELVSTKPTRTSKVRQLLDTTDIQGEEFAKVIVQKLKDNKQMGLQ [R7E], -0.42 ± 0.13; with QWIQSKKEDIVNQMTEACLNQSLDALLSRDLIMKEDYELVSTKPTRTSKVRQLLDTTDIQGEEFAKVIVQKLKDNKQMGLQ [R7K], 0.032 ± 0.14. With QWIQSKCEDIVNQMTEACLNQSLDALLSRDLIMKEDYELVSTKPTRTSKVRQLLDTTDIQGEEFAKVIVQKLKDNKQMGLQ [R7C], the abundance fitness is -1.04 ± 0.31.

Consider QWIQSKFEDIVNQMTEACLNQSLDALLSRDLIMKEDYELVSTKPTRTSKVRQLLDTTDIQGEEFAKVIVQKLKDNKQMGLQ [R7F], for which the abundance fitness is -0.027 ± 0.17.

Regarding QWIQSKMEDIVNQMTEACLNQSLDALLSRDLIMKEDYELVSTKPTRTSKVRQLLDTTDIQGEEFAKVIVQKLKDNKQMGLQ [R7M], the abundance fitness was -1.09 ± 0.42. On to QWIQSKWEDIVNQMTEACLNQSLDALLSRDLIMKEDYELVSTKPTRTSKVRQLLDTTDIQGEEFAKVIVQKLKDNKQMGLQ [R7W], for which the abundance fitness is -0.673 ± 0.12.

The values above are taken from the Human Domainome abundance scans (Beltran et al. 2025).
